Several values for one entry are separate records, joined by “and”; a condition that tells them apart may be missing. Identical values can stand only once.

As a reminder, the Km is the concentration of substrate that gives half-maximal velocity. What is called kcat/Km is the second-order rate constant that governs catalysis at low substrate concentration.

Substrate in data set [1]: C=C(OP(=O)(O)O)C(=O)O
The data set can be described thus: purified protein, by the assay type. The following applies: other: pH 7.5, 1 mM S3P.

Substrate in data set [2]: C=C(OP(=O)(O)O)C(=O)O
The data set can be described thus: In vitro kinetic assay (inorganic phosphate production, malachite green). Type of data set: biochemical, Triticum aestivum. The conditions noted are these: other: pH 7.5, 1 mM S3P. The source says: The following Class I enzymes: DGT-1 from Glycine max, DGT-3 from Brassica napus (GENBANK ACC NO: P17688), and DGT-7 from Triticum aestivum (GENBANK ACC NO: EU977181) were used as a comparison. The Class I EPSP synthase enzymes and mutant variants thereof were synthesized and evaluated. A mutation introduced into the plant EPSP synthase enzymes consisted of the Glycine to Alanine mutation made within the EPSP synthase enzyme at a similar location as that of the G96A mutation from the E. coli version of the enzyme. In addition, Threonine to Isoleucine and Proline to Serine mutations were introduced within these Class I EPSP synthase enzymes at analogous positions as that of amino acid 97 (T to I) and amino acid 101 (P to S) in the EPSP synthase of E. coli as described in Funke et al., (2009).
The location of the amino acid residue which was mutated from glycine to alanine is indicated by the first asterisk. The location of the amino acid residue which was mutated from threonine to isoleucine is indicated by the second asterisk. The location of the third amino acid residue which was mutated from proline to serine is indicated by the third asterisk. These mutations were introduced into different versions of DGT-1, DGT-3, and DGT-7. The different versions of the genes which contain the mutations are described in more detail below.
Additional constructs containing the dgt-1, dgt-3 and dgt-7 were synthesized. These constructs were used for in vitro testing of the dgt-1 v5, dgt-1 v6, dgt-1 v7, dgt-1 v8, dgt-3 v6, dgt-3 v7, dgt-3 v8, dgt-7 v5, dgt-7 v6, dgt-7 v7, and dgt-7 v8 gene sequences were outsourced to GeneArt for synthesis and cloning. The synthesized genes were cloned into the pET28 expression vector. The resulting constructions were labeled as pDAB102028 containing dgt-1 v5, pDAB102029 containing dgt-1 v6, pDAB102032 containing dgt-1 v7, pDAB102034 containing dgt-1 v8, pDAB100429 containing dgt-3 v6, pDAB100442 containing dgt-3 v7, pDAB100430 containing dgt-3 v8, pDAB102036 containing dgt-7 v5, pDAB102038 containing dgt-7 v6, pDAB102040 containing dgt-7 v7, and pDAB102042 containing dgt-7 v8.
Recombinant DGT proteins were overexpressed in Rosetta2™ (DE3) cells (Novagen, Madison, Wis.) from the constructs described above. A single colony was used to inoculate 50 mL starter cultures of LB containing chloramphenicol (25 μg/mL) and kanamycin (50 μg/mL) which were cultivated overnight at 37° C. The overnight cultures were used to inoculate 1 L of LB containing chloramphenicol (25 μg/mL) and kanamycin (50 μg/mL). The cultures were grown at 37° C. to an O.D.600=0.6 then placed in an ice water bath for 10 minutes. Expression of the target proteins was achieved by addition of IPTG to a final concentration of 500 μM. Induction was allowed to proceed overnight at 20° C. followed by harvesting via centrifugation at 8,000 rpm for 20 minutes. The cell pellets were stored at −80° C. until required for purification. All purification steps were carried out at 4° C.
Cell pellets from 1 L cultures were resuspended in 20-30 mL Buffer A (50 mM HEPES pH 7.5, 150 mM KCl, 2 mM DTT, 1 mM EDTA, 20 mM imidazole, and 5% glycerol). COMPLETE™ protease inhibitor cocktail (1 tablet/50 mL, Roche, Indianapolis, Ind.) and lysozyme (1 mg/mL, Sigma-Aldrich, St. Louis, Mo.) were then added and the suspension was stirred for 20 minutes. Cell lysis was performed using a Branson Sonifier 250 (3×60 second bursts) followed by removal of the cell debris by centrifugation at 16,000 rpm for 45 minutes. […]

B1: Glycine max (soybean) EPSP synthase DGT-1 v5, native, SEQ ID NO: 59 (Glycine max) (protein)
chain: MASVAAAEKPSTSPEIVLEPIKDFSGTITLPGSKSLSNRILLLAALSEGTTVVDNLLYSEDIHYMLGALRTLGLRVEDDKTTKQAIVEGCGGLFPTSKESKDEINLFLGNAGTAMRPLTAAVVAAGGNASYVLDGVPRMRERPIGDLVAGLKQLGADVDCFLGTNCPPVRVNGKGGLPGGKVKLSGSVSSQYLTALLMAAPLALGDVEIEIVDKLISVPYVEMTLKLMERFGVSVEHSGNWDRFLVHGGQKYKSPGNAFVEGDASSASYLLAGAAITGGTITVNGCGTSSLQGDVKFAEVLEKMGAKVTWSENSVTVSGPPRDFSGRKVLRGIDVNMNKMPDVAMTLAVVALFANGPTAIRDVASWRVKETERMIAICTELRKLGATVEEGPDYCVITPPEKLNVTAIDTYDDHRMAMAFSLAACGDVPVTIKDPGCTRKTFPDYFEVLERLTKH
B1: in data set [1], the Km is 70 µM and 73.0 µM.

B2: Triticum aestivum (wheat) EPSP synthase DGT-7 v5, native (GENBANK EU977181), SEQ ID NO: 60 (Triticum aestivum) (protein)
chain: MATSVAAPAAPSGAEEVVLQPIREISGAVQLPGSKSLSNRILLLSALSEGTTVVDNLLNSEDVHYMLEALEALGLSVEADKVAKRAVVVGCGGRFPVEKDAQEEVKLFLGNAGTAMRPLTAAVVAAGGNATYVLDGVPRMRERPIGDLVVGLQQLGADADCFLGTNCPPVRINGKGGLPGGKVKLSGSISSQYLSSLLMAAPLALEDVEIEIIDKLISVPYVEMTLKLMERFGVTAEHSDSWDRFYIKGGQKYKSPGNAYVEGDASSASYFLAGAAITGGTVTVEGCGTTSLQGDVKFAEVLEMMGAKVTWTDTSVTVTGPPRQPFGRKHLKAVDVNMNKMPDVAMTLAVVALFADGPTAIRDVASWRVKETERMVAIRTELTKLGATVEEGPDYCIITPPEKLNITAIDTYDDHRMAMAFSLAACAEVPVTIRDPGCTRKTFPNYFDVLSTFVKN
With B2, in data set [1], the Km came out at 75.6 µM.

B3: Triticum aestivum (wheat) EPSP synthase DGT-7 variant DGT-7 v6 (G→A) (Triticum aestivum; G167A) (protein)
chain: MATSVAAPAAPSGAEEVVLQPIREISGAVQLPGSKSLSNRILLLSALSEGTTVVDNLLNSEDVHYMLEALEALGLSVEADKVAKRAVVVGCGGRFPVEKDAQEEVKLFLGNAATAMRPLTAAVVAAGGNATYVLDGVPRMRERPIGDLVVGLQQLGADADCFLGTNCPPVRINGKGGLPGGKVKLSGSISSQYLSSLLMAAPLALEDVEIEIIDKLISVPYVEMTLKLMERFGVTAEHSDSWDRFYIKGGQKYKSPGNAYVEGDASSASYFLAGAAITGGTVTVEGCGTTSLQGDVKFAEVLEMMGAKVTWTDTSVTVTGPPRQPFGRKHLKAVDVNMNKMPDVAMTLAVVALFADGPTAIRDVASWRVKETERMVAIRTELTKLGATVEEGPDYCIITPPEKLNITAIDTYDDHRMAMAFSLAACAEVPVTIRDPGCTRKTFPNYFDVLSTFVKN
Turning to B3, in data set [2], the Km was found to be 538.2 µM and the kcat/Km is 16100 M⁻¹ s⁻¹.

B4: Triticum aestivum (wheat) EPSP synthase DGT-7 variant DGT-7 v8 (T→I, P→S; TIPS) (Triticum aestivum; P172S/T168I) (protein)
chain: MATSVAAPAAPSGAEEVVLQPIREISGAVQLPGSKSLSNRILLLSALSEGTTVVDNLLNSEDVHYMLEALEALGLSVEADKVAKRAVVVGCGGRFPVEKDAQEEVKLFLGNAGIAMRSLTAAVVAAGGNATYVLDGVPRMRERPIGDLVVGLQQLGADADCFLGTNCPPVRINGKGGLPGGKVKLSGSISSQYLSSLLMAAPLALEDVEIEIIDKLISVPYVEMTLKLMERFGVTAEHSDSWDRFYIKGGQKYKSPGNAYVEGDASSASYFLAGAAITGGTVTVEGCGTTSLQGDVKFAEVLEMMGAKVTWTDTSVTVTGPPRQPFGRKHLKAVDVNMNKMPDVAMTLAVVALFADGPTAIRDVASWRVKETERMVAIRTELTKLGATVEEGPDYCIITPPEKLNITAIDTYDDHRMAMAFSLAACAEVPVTIRDPGCTRKTFPNYFDVLSTFVKN
notes: TIPS double mutant
For B4, the Km in data set [2] was 60.5 µM.

B5: Triticum aestivum (wheat) EPSP synthase DGT-7 variant DGT-7 v7 (G→A, P→S; GAPS) (Triticum aestivum; G167A/P172S) (protein)
chain: MATSVAAPAAPSGAEEVVLQPIREISGAVQLPGSKSLSNRILLLSALSEGTTVVDNLLNSEDVHYMLEALEALGLSVEADKVAKRAVVVGCGGRFPVEKDAQEEVKLFLGNAATAMRSLTAAVVAAGGNATYVLDGVPRMRERPIGDLVVGLQQLGADADCFLGTNCPPVRINGKGGLPGGKVKLSGSISSQYLSSLLMAAPLALEDVEIEIIDKLISVPYVEMTLKLMERFGVTAEHSDSWDRFYIKGGQKYKSPGNAYVEGDASSASYFLAGAAITGGTVTVEGCGTTSLQGDVKFAEVLEMMGAKVTWTDTSVTVTGPPRQPFGRKHLKAVDVNMNKMPDVAMTLAVVALFADGPTAIRDVASWRVKETERMVAIRTELTKLGATVEEGPDYCIITPPEKLNITAIDTYDDHRMAMAFSLAACAEVPVTIRDPGCTRKTFPNYFDVLSTFVKN
notes: GAPS double mutant
Regarding B5, in data set [2], the Km worked out at 1103.2 µM and the kcat/Km amounted to 14600 M⁻¹ s⁻¹.

The values above are taken from patent US9873883B2, “Glyphosate resistant plants and associated methods” (Dow AgroSciences LLC, priority 2012, dated 2018).
